Literature values, collected in article PMC6232131.

Biological target: fibrinogen beta (Homo sapiens) (UniProt P02675)
Sequence of UniProt P02675 (P02675 45-491): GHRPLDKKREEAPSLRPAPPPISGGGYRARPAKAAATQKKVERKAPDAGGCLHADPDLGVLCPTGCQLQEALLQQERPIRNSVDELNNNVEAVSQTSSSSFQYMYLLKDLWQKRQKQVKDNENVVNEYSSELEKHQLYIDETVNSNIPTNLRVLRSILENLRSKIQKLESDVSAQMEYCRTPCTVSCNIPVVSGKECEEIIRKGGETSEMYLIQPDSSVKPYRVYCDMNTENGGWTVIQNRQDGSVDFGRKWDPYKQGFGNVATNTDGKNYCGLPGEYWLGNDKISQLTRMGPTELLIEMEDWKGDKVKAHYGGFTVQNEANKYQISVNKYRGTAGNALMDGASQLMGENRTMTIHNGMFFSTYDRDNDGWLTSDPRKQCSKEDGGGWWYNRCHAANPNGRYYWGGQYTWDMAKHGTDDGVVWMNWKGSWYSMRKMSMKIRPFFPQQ

In the case of SdrG N2N3 (from UniProt Q9KI13), the Kd is listed as 400 nM.
